Data taken from the DeepSol protein solubility set.

Assay: soluble on expression in E. coli; label from the status in PepcDB or PDB records

Sequence	soluble on expression in E. coli
MSLIYFETERLIARDYLERDYLPFSQMNADEEVMKYFPARLTQVESNALLDRNQKELTSLGYGLFAIEVKSTNEFIGFTGLHEATFEAEFTPCIEIGWRLKRSAWNQGFATEAALGVLAFAKGITAINEIYSFTATCNKPSEKVMRKIHLTKIADFEHPALINGNPLKPHVLYKAEGHHHHHH	not soluble
MSLKTKTFKMQLQFLSEQNLEINNNNQLLNQEKITYLQKIEQLKCKLEYQERMIKDSEKIREESFASAKAALFDLGKDLSKQLIEIHKMENNTTRELAEKNIETASQKFNTELERLITMVGALNKDIEQSKGTVDLIKQSLLSPIGAGLLSEITLENILKSSGLRPNLDFIMQYSLTTSDSVKLRPDAIIFLPSGNLMVIDSKASKFLVDSQDNSVHLSKTMNYHLKTLTNKDYAENILTNLNKKTQNFNNVITLMFLPTEQAVEKVIAANPEFLQKAWGCNIFPVGPAGLMNMLSFAKFQITDNRRSENYKVIIEEVRKLLSSIGTIADYSKKIGYNLQNMVTNYDKFAASFNRNVMSRVKSIQKLGIDSGNKIIPATLERYQIVSAKSEIIEVDVENQHKEGHHHHHH	not soluble
DDDLEVKEENGVWVLNDGNFDNFVADKDTVLLEFYAPWCGHCKQFAPEYEKIASTLKDNDPPIAVAKIDATSASMLASKFDVSGYPTIKILKKGQAVDYDGSRTQEEIVAKVREVSQPDWTPPPEVT	soluble
MGSDKIHHHHHHMHLSINLLPILSQHQVSFNTDIYCLEKFMFQIDTLIAAKIVDRTMKIIGHNINVMNAQAVILGSGDIDRIGTVHEGALLAISQNRNVEISQAIASNLHGVKPGLNLPLHYHGQVVGVIGITGEPDTLSHYGELLKMTAEMIVEQANLQEQLQWQNRQTEEFISQLIHANEQDLPSLQQWALQLGIDLSVPRVAAIIELDSNNPLYQQDNQALKQVLYLLQNPVRDNLIAMTSLTQLVILKPAFLDGKQFDPELENQRINKLLKRLPANMQLSLHISLGHYFGGELGISYSYRTAKETLDIGKKLHPTKTKYLYQDYSLQVLLSGLRHHWRGNALAGPYLKLIEVDNNQQLQKTLAAYLDHMGDIQACANSLFIHRNTLRYRLDKIQTITNIDLRSFNGLLSLYLGQLIHQPST	not soluble
MELLCPAGNLPALKAAIDNGADAVYIGLKDDTNARHFAGLNFTDKKLQEAVNYVHSRKRKLHIAINTFAHPDGYARWQRAVDMAAQLGADALILADLAMLEYAAERYPQVERHVSVQASATNDEAIRFYQRHFDVARVVLPRVLSMHQVKQLSRTSPVPLEVFAFGSLCIMAEGRCYLSSYLTGESPNTVGACSPARFVRWQQTPQGMESRLNDVLIDRYEDHENAGYPTLCKGRYRVDGQRYHALEEPTSLNTLELLPELFAANIASVKIEGRQRSPAYVSQVAKVWRQAIDLYQANPAQFAAKAEWMEQLGAMSEGTQTTLGAYHRKWQ	not soluble
MSLATIYDVSVLAGVSLATVSRVMNKNTNVSEKTKKKVQDAMDQLGYRPSSIAQSLASNRSNSIGVLVSQLDGPFYGPMMTEIETALRDANKHVIIAAGHSNETQEKEAVEFLLDRGCDALILDVEALSDEYIINLCQQSTPIVLINRFISEIEERCIYLNNALGGYLATKHVLSQGHTQLAYIAGPQFKSDARERLEGHKQALAEFEVTFDETLFFEGNFREPSGVSAMEYLLKQDKQFTCVISANDQMASGAIAVSLERDISVPKQLSFIGYDNSPFPKYISPKLSTVSNPIQEMGKMAALWVLKNVYNKPDLSIVNTFTPQLILRDSVKEGHHHHHH	soluble
MGSDKIHHHHHHMTASTVRSPIKVQMRQTGYAARQQRAARMGGMLYQLHELTRNLLAPWVHQAQANAKMFSDPDSLWASLPGAERMAASNELFHRLGKEYEKPAWALDDVEVDGHSLPIIEREVLSKPFCRLLRFKRFSDHVELIGTMKQQPAVLVVAPLSGHHATLLRDTVRTLLRNHKVYVTDWVDARMVPLEAGAFRLEDYIAYIQEFIRHIGAERLHVVSVCQPTVPVLAAVSLMASNDEPTPRSLVMMGGPIDARRSPTQVNNLATENGIEWFQNNLIHTVPFPYPGHGRQVYPGFLQHAGFLSMNPNRHVMSHWDFYTDLVKGDLQDAQAHRQFYDEYNAVLDMPSEYYLDTIRVVFQEFLLPQGKWKVDGQLVMPSAIRNTALLSIEGELDDIAGLGQTEAVHDLCTGIDAAHRRHLVVEGAGHYGIFSGRRWREVVYPQVREFIARYDADPVGSRDPATVTPIRKRGKRA	not soluble
GHMKQSHFFAHLSRLKLINRWPLMRNVRTENVSEHSLQVAMVAHALAAIKNRKFGGNVNAERIALLAMYHDASEVLTGDLPTPVKYFNSQIAQEYKAIEKIAQQKLVDMVPEELRDIFAPLIDEHAYSDEEKSLVKQADALCAYLKCLEELAAGNNEFLLAKTRLEATLEARRSQEMDYFMEIFVPSFHLSLDEISQDSPL	soluble
MAHHHHHHMGTLEAQTQGPGSMQYPPRLGFGTWQAPPEAVQTAVETALMTGYRHIDCAYVYQNEEAIGRAFGKIFKDASSGIKREDVWITSKLWNYNHRPELVREQCKKTMSDLQVDYLDLFLVHWPLAFVRNDVGDLFPKDAEGRAMLEKVPLADTWRAMEQLVEEGLVKHIGVSNYTVPLLADLLNYAKIKPLVNQIEIHPWHPNDATVKFCLDNGIGVTAYSPMGGSYADPRDPSGTQKNVILECKTLKAIADAKGTSPHCVALAWHVKKWNTSMYSVIPKSQTPARIEANFKCTEVQLSDDDMDAINNIHLNKRIRFCDPAIFWKVPLFD	soluble
SDEEKKRRAATARRQHLKSAMLQLAVTEIEKEAAAKEVEKQNYLAEHSPPLSLPGSMQELQELSKKLHAKIDSVDEERYDTEVKLQKTNKELEDLSQKLFDLRGKFKRPPLRRVRMSADAMLRALLGSKHKVNMDLR	soluble
MHILVVGVDYKSAPIEIREKVSFQPNELAEAMVQLKEEKSILENIIVSTCNRTEIYAVVDQLHTGRYYIKKFLADWFQLSKEELSPFLTFYESDAAVEHLFRVACGLDSMVIGETQILGQVRDSFKTAQQEKTIGTIFNELFKQAVTVGKRTHAETDIGSNAVSVSYAAVELAKKIFGNLSSKHILILGAGKMGELAAENLHGQGIGKVTVINRTYLKAKELADRFSGEARSLNQLESALAEADILISSTGASEFVVSKEMMENANKLRKGRPLFMVDIAVPRDLDPALNDLEGVFLYDIDDLEGIVEANMKERRETAEKVELLIEETIVEFKQWMNTLGVVPVISALREKALAIQSETMDSIERKLPHLSTREKKLLNKHTKSIINQMLRDPILKVKELAADADSEEKLALFMQIFDIEEAAGRQMMKTVESSQKVHSFKKAESKAGFSPLVSE	not soluble
MSELPPLNTDTIWGILNDQIDDATVMQLVWYYLGYRYDATTEKWDNNAVPSEWRDEYPEPPNFLESRPATMKLTRSIPKQYKQITKEKLGFKGYKIGTFTPRETRRATSANWLLSYLQQQIDQGK	soluble
MGSDKIHHHHHHMSEKKKVLMLHGFVQSDKIFSAKTGGLRKNLKKLGYDLYYPCAPHSIDKKALFQSESEKGRDAAKEFNTSATSDEVYGWFFRNPESFNSFQIDQKVFNYLRNYVLENGPFDGVIGFSQGAGLGGYLVTDFNRILNLTDEQQPALKFFISFSGFKLEDQSYQKEYHRIIQVPSLHVRGELDEVVAESRIMALYESWPDNKRTLLVHPGAHFVPNSKPFVSQVCNWIQGITSKEGQEHNAQPEVDRKQFDKPQLEDDLLDMIDSLGKL	not soluble
MGSDKIHHHHHHMKKKTTTVYVDKQYKLTRDVAPLSFMLPIKHSRRFPLLHFDESTGTNRELRYARNQKSPFVDKQDGNALLEPVIFEDGFLFVKKENQVLQQFLHYHPLNGTKFVEVDKSKDAAQVVDQLMIEADALVEAKKLSLEQLENVCRVLFNTNVDKLTTAEMKRDVLVFAKNNPQDFLDICSDPELKIMGMVQSFFDKGHLAYRKSKKEVWYNTPTNKTKMLNVPFGADGLDLVVSYLQSDEGIDVLKHLETL	not soluble
MSLGTDLLESGEGNKYLVVEKHLKQAINGGVYQADDRLPSIRSLSQELNVSKNTVIRAYQELEAQNLVYSVPKSGYRVKVALPTSRSIPDPTRVDLLSICKEILTYPEYQERLPAGSAHPNIDSPAIKSLYAEIGRHSRQQTHVPSHYQLPPGDHLLIKQLAKITQDLGTPAKLDEIMVTHGAQQAISLALRATTQKGDIVAVESPCYFGNLLMLESLGLKVVEIPSCPRDGMCPEALAKTMATWDIKALIVTPNFTNPTGAMMPLEKRQQLLLASGNIPIIEDDVFGGLSYDKPLPSLSLLDDKQRVIYVNSLSKTLDSRLRIGWMLAGRYRDQIEQYLLCENMGSLNLMQSAVATFLTSGKYRTHTARMGRVYQNNMRRFIQMLHQYLDEYESLKNRYQINAVQGSFLLWLRLPEDTDSYALYQACNKHRISLLPGTVFGTQEQYRHCVRLSVANFGHETDWSHAMQTLAKLIAKRVCEGHHHHHH	not soluble
MAELQKVDDWLSALLANLEPAARSRMMRQLAQELRRTQQQNIRMQRNPDGSSYEPRRVTARSKKGRIKRQMFAKLRTTKYLKTAASADSASVQFEGKVQSIARVHHYGLRDRVSRKGPEVRYAERRLLGVNDDVEAMTRDMILQWLAG	not soluble
MGSDKIHHHHHHMKLGYCSITWGGVVGHPGGVTSVKDLFYLTHGSMKDAIHDIASVGYEGVEMFDGNLAEYADKPEVLKELLNSSGVSLTSVYTGANFIYADILPDELHRIHRSAELAANFGADRLVVGGGARRAAGTTDEDYHRLGRALDSVTDIAESFGLSASYHPHLTTIVESPDELDKLMPLTRIGFCPDTAHLAAGGADPAAVIRKYPDRIRHVHLKDFRQDPFTFLPLGQGELDFPDILAAIRESGYDSWLMVELDNYDGDPREAAELSMKYLEKLL	not soluble
MTENVVCTGAVNAVKEVWEKRIKKLNEDLKREKEFQHKLVRIWEERVSLTKLREKVTREDGRVILKIEKEEWKTLPSSLLKLNQLQEWQLHRTGLLKIPEFIGRFQNLIVLDLSRNTISEIPPGIGLLTRLQELILSYNKIKTVPKELSNCASLEKLELAVNRDICDLPQELSNLLKLTHLDLSMNDFTTIPLAVLNMPALEWLDMGSNKLEQLPDTIERMQNLHTLWLQRNEITCLPQTISNMKNLGTLVLSNNKLQDIPVCMEEMANLRFVNFRDNPLKLKVSLPPSEGTDEEEERELFGLQFMHTYIQESRRRADHQVNGSTTLPISINTDG	soluble
MSTGANRILDDLARLMTDAAGAAQGVRREVEAAFRAQTENWLNSLDVVKREEFEAVKEMAARARDENDALLARIEALEARLAATGPAAADITTGK	not soluble
MKLSQMQAGERGIILALDGLSDTVRKKLMVMGVLPNTEVVLIRRAPMGDPLQVEVRGVSIALRENIAANIDVERAQ	not soluble
MTQKLHIKTWGCQMNEYDSSKMADLLLSTHGLELTEAPEEADVLLLNTCSIREKAQEKVFHQLGRWKELKKNNPNLVIGVGGCVASQEGEHIRHRAPYVDIIFGPQTLHRLPEMINQIRGGKSSVVDVSFPEIEKFDRLPEPRAEGPTAFVSIMEGCNKYCTFCVVPYTRGEEVSRPVDDVLFEIAQLAEQGVREVNLLGQNVNAYRGPTHDGQICSFAELLRLVASIDGIDRLRFTTSHPIEFTDDIIDVYRDTPELVSFLHLPVQAGSDRVLTMMKRAHTALEYKSIIRKLRAVRPDIQISSDFIVGFPGETAEDFEQTMNLIAQVNFDMSFSFVYSARPGTPAADMPDDVTEDEKKQRLYVLQERINQQAAQFSRRMLGTEQRVLVEGPSKKDIMELTGRTETNRIVNFQGSPEMIGKFVDVKITDVYTNSLRGEVVRTEDEMGLRIAQSPQEVMNRTRKEDELGVGRYHGLEHHHHHH	soluble
MAHHHHHHMSKADENGNELMEIEEVAVSDGGAARFAAVDVKSGEERFNVIWQDSGKLMRFDEGENQWKERGQGTAKVLQRKDNTSKYMFVFRREGVGKLAAQHYLVKGMKVTKHKQGEKILVWSAFKDFTDDEEGFPENFVMRLSSKEAADKALAEMMGAIEKSSV	soluble
